Substrate: O=P(O)(O)O[C@H]1O[C@H](CO)[C@@H](O)[C@H](O)[C@H]1O
Experiment: purified protein
Details: synthetic direction, glucosyl donor 0.5-10 mM, 20 mM D-glucose, 1 mM MgCl2, 10 mM DTT, Tris-HCl pH 7.5, 60 °C
From the text: Pi release from G-1-P, molybdate assay, Hanes-Woolf plot on TaCDP (initially TaCBP; THA_1941)

B1: TaCDP (initially TaCBP; THA_1941) (Thermosipho africanus TCF52B) (protein)
chain: MKKFDFVIENYSKQKLFSSFLPGIAGKNGIPLWVFYVNRGQCIASFGIENKANSILEFKPAGQSHTDTPLKGFRTFIKVDGRYYEPFSELTNFKREMRINKNSLEIEERNNELGLKVKVIYFVLPNEDFAALVRRVEIENEDKYEKHIEIIDGLPEVIPYGVSNGLYKEMGYTARAWMHVYNYEKKVPFYSVRTTIGDLEIVEEINNGYFYFASSGDELLEVIYDKNVLFGNSTSLQVPLVFKELGIKEVLRKEQYDENLLPSAFGVLERKLKDKVVINSMIGFSKEKGLINNNINTLKKDEYIISKKEEADLIVEELVSEIKTKTSNKLFDKYCEQNYLDNVLRGGYPLVFENKDGKVVYHIYSRKHGDLERDYNFFVLEAKKYSQGNGNFRDVAQNRRNDVIFHPEIEDFNLSMFVNLIQADGNNPLVVKGTRFKFEGDPSILDGVNEELKEFILNNYFTPGEILEKLKDKNVNEDEFVSKILYHSSQHEQAEFGEGYWIDHWTYLMDLVDTYKEIYPDKLQKTLFEKFEYKIYDSHAYVKPRKEKYKLYKGKVRQIAAVGESHEKLKIIQERGHNYLTDRNGNIYKTNMFEKLLLLAVNKFATLDPYGMGLEMEANKPGWNDALNGLPALFGSGMSETFELKRLINFMYEELKKYNKDIEVFEELQEFIQKIKVELENYFNDNDQFIYWDNVSNAKEEYRSKVFYSITGNKKKISKVELLAILKKMIKKLDEGIERAKNYGKGIYPTFFTYELVDYEVIDGVIIPKKFEVNVLPYFLEGIVRAFKVIDKDEKKKLYDFVKNSNIYDKKLKMYKTSESILNQPYSIGRIRAFTPGWLENESVFMHMEFKYLLELIKSDMLEEFYEDIKTALPPYMDYKVYGRSILENSSFIVSSANSNPNLHGQGFYARLSGSTAEFLSMWKYMFIGDKLFTLENNELTFTFEPKINKEFFENGVIEFKLFSKTKVKYVNPQLKEKIGRIEVFVDGKKFEIHGNKIKGELAHKLRNKKIDEVICYFE
**Q.** B1 was tested. Which Km did it give?
**A.** 1570 ± 200 µM

**Q.** And the kcat?
**A.** 7.61 ± 0.66 s⁻¹

**Q.** And the kcat/Km?
**A.** 4850 M⁻¹ s⁻¹
